Experimental data as given in patent publication US20240084003A1 (SIMCERE ZAIMING PHARMACEUTICAL, published 2024).
Read-outs that look alike come from different tables or passages of the source.

Key:
[1] = target: T1, monkey CD22 protein (ACROBiosystems, catalog number SI2-R52Ha) (monkey, UniProt F6W485 20-688); test: ELISA, coated monkey CD22 protein, antibody 0.0001 nM
T1 construct: commercial protein; also called monkey CD22-ECD; monkey CD22-ECD-His
T1 sequence: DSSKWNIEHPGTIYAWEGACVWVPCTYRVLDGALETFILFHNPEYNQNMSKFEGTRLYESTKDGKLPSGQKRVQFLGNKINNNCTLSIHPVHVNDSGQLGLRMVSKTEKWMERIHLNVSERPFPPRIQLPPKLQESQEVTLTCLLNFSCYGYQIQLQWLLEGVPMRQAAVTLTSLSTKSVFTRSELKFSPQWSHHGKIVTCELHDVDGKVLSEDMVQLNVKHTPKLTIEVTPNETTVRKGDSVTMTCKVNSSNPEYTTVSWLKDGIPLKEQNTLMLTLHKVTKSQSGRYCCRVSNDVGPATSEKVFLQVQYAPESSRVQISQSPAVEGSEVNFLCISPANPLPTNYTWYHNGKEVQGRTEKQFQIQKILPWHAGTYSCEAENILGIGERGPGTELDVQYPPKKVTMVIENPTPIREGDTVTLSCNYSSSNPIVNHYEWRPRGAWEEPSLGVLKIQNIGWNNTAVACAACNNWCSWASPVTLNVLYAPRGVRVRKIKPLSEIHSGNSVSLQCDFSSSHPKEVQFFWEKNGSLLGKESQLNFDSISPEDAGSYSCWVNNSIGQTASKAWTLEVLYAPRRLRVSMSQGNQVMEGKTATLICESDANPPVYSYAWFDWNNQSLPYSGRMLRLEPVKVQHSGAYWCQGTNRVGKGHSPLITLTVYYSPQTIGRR
Description: (§1) In order to detect the binding activity of CD22 human-murine chimeric antibodies to CD22 protein, the purified human CD22-ECD-His protein obtained in Example 2 was diluted with PBS to a final concentration of 2 μg/mL, and then added to 96-well ELISA plate at 100 μl/well. The plate was sealed with plastic film and incubated overnight at 4° C., the plate was washed 2 times with PBS the next day, and then a blocking solution [PBS+2% (w/w) BSA] was added for blocking at room temperature for 2 hours. […] After incubation at 37° C. for 2 hours, the plate was washed 3 times with PBS. HRP (horseradish peroxidase)-labeled secondary antibody (purchased from Sigma, catalog number: A0170) was added, and incubated at 37° C. for 2 hours, and the plate was washed 5 times with PBS. TMB substrate was added at 50 μl/well, and incubated at room temperature for 30 minutes, then a stop solution (1.0 N HCl) was added at 50 μl/well.
(§2) In order to detect the species cross-binding activity of the chimeric antibodies, an ELISA plate was coated with commercial murine CD22 protein (ACROBiosystems, catalog number: SI2-M52Ha) and monkey CD22 protein (ACROBiosystems, catalog number: SI2-R52Ha), respectively, and the ELISA detection was performed according to the method in Example 5.1.

[2] = target: T2, monkey CD22 on HEK293T-monkey CD22 cells (monkey); test: FACS, HEK293T-monkey CD22 cells, EC50 column
T2 construct: full-length entry expressed on stably transfected HEK293T cells
T2 chain: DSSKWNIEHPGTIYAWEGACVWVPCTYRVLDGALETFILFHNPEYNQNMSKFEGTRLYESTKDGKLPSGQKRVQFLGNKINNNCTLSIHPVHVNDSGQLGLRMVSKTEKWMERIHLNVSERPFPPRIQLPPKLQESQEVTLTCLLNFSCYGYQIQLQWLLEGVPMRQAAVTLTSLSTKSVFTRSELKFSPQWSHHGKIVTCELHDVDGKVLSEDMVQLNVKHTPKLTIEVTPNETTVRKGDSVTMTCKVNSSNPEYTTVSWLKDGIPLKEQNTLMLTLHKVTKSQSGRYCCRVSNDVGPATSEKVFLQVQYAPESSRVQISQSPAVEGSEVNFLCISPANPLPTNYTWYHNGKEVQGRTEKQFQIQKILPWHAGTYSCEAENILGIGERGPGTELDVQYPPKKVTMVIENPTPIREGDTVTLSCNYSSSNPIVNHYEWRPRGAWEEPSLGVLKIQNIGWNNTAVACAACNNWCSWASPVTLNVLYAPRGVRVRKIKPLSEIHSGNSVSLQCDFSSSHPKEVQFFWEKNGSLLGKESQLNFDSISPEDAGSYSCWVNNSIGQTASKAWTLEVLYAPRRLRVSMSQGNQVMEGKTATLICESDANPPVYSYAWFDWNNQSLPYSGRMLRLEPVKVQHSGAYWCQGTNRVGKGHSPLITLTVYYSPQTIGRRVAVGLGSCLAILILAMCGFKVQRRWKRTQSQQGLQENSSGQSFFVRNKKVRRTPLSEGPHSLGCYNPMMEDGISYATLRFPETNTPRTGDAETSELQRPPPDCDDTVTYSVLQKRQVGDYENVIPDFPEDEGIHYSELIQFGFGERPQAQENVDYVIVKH
Description: (§3) For suspension cell Raji, the medium supernatant was directly centrifuged and discarded, and the cell pellet was washed 2 times with PBS. After counting the cells in the previous step, the cell pellet was resuspended with [PBS+2% (w/w) BSA] blocking solution to 2×10⁶ cells/ml, and added to a 96-well FACS reaction plate at 50 μl/well, and then the chimeric antibody test sample was added at 50 μl/well, and incubated on ice for 2 hours. The mixture was centrifuged and washed 3 times with PBS buffer, Alexa Flour 488-labeled secondary antibody (purchased from Invitrogen, catalog number: A-11013) was added at 50 μl/well, and incubated on ice for 1 hour. The obtained mixture was centrifuged and washed 5 times with PBS, and FACS (FACS Canto™, purchased from BD Company) was used for detection and result analysis. Data analysis was performed by software (CellQuest) to obtain the mean fluorescence density (MFI)of the cells. And then software (GraphPad Prism8) was used for analysis, data fitting, and EC50 value calculation. […] The same method was used to detect the binding of the chimeric antibodies to endogenous CD22-negative cell MoLT4 cells (purchased from ATCC, CRL-1582) and CHO-K1 cells.
(§4) HEK293T-monkey CD22 cells were subjected to FACS detection and data analysis according to the method in Example 5.2.

[3] = target: T2, monkey CD22 on HEK293T-monkey CD22 cells; test: FACS, HEK293T-monkey CD22 cells
Description: as §3, §4

[4] = target: T1, monkey CD22 protein (ACROBiosystems, …); test: ELISA, coated monkey CD22 protein, antibody 0.1 nM
Description: as §1, §2

[5] = target: T1, monkey CD22 protein (ACROBiosystems, …); test: ELISA, coated monkey CD22 protein, antibody 10 nM
Description: as §1, §2

[6] = target: T1, monkey CD22 protein (ACROBiosystems, …); test: ELISA, coated monkey CD22 protein, antibody 0.00001 nM
Description: as §1, §2

[7] = target: T1, monkey CD22 protein (ACROBiosystems, …); test: ELISA, coated monkey CD22 protein, antibody 100 nM
Description: as §1, §2

[8] = target: T1, monkey CD22 protein (ACROBiosystems, …); test: ELISA, coated monkey CD22 protein, antibody 0.001 nM
Description: as §1, §2

[9] = target: T2, monkey CD22 on HEK293T-monkey CD22 cells; test: FACS, HEK293T-monkey CD22 cells
Description: as §3, §4

[10] = target: T1, monkey CD22 protein (ACROBiosystems, …); test: ELISA, coated monkey CD22 protein, antibody 0.01 nM
Description: as §1, §2

OD450 [1]: 0.07 OD450 | binding result [2]: no binding | Maximum mean fluorescence intensity [3]: 104 MFI | OD450 [4]: 0.07 OD450 | OD450 [5]: 0.09 OD450 | OD450 [6]: 0.07 OD450 | OD450 [7]: 0.12 OD450 | OD450 [8]: 0.06 OD450 | Maximum mean fluorescence intensity [9]: 49 MFI | OD450 [10]: 0.07 OD450
B1: m971-hIgG1 (antibody, V domains shown)
VH: QVQLQQSGPGLVKPSQTLSLTCAISGDSVSSNSAAWNWIRQSPSRGLEWLGRTYYRSKWYNDYAVSVKSRITINPDTSKNQFSLQLNSVTPEDTAVYYCAREVTGDLEDAFDIWGQGTMVTVSS
VL: DIQMTQSPSSLSASVGDRVTITCRASQTIWSYLNWYQQRPGKAPNLLIYAASSLQSGVPSRFSGRGSGTDFTLTISSLQAEDFATYYCQQSYSIPQTFGQGTKLEIKR
notes: control anti-CD22 antibody; variable regions from US 8,591,889 on human IgG1 constant regions
